Reference: PMC13108567, “Targeting PD-1^+ T cells with chimeric antigen receptors to reduce the HIV reservoir” (Science Advances, 2026)

Target: T1, PD-1 biotinylated dimer (Homo sapiens, UniProt Q15116)
T1 construct: also called PD-1 dimer protein
Test: BLI
Conditions: both partners purified

T1 sequence (Q15116 25-288): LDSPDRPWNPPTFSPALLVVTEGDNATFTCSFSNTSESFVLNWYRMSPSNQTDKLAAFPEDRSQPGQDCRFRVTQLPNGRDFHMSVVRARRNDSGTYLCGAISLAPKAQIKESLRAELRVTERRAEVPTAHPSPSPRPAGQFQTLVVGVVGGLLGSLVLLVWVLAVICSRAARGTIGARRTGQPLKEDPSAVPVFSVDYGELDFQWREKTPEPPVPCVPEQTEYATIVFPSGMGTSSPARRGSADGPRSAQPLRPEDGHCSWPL

- KD, fold lower than that of the scFv of clone A35: 4 times
B1: scFv-His of anti-PD-1 clone 135c139d6 (scFv, V domains shown)
VH: EVQLVQSGAEVKKPGESLKISCKGSGYSFTNFYIHWVRQAPGQRLEWMGSIYPNYGDTAYNQKFKDRFVFSLDTSVSTAYLQISSLKAEDTAVYYCARGYSYAMDYWGQGTTVTVSS
VL: DIQMTQSPSSVSASVGDRVTITCSASQGISGDLNWYQQKPGKAPKLLIYHTSSLHSGVPSRFSGSGSGTDFTLTISSLQPEDFATYYCQYYSKDLLTFGGGTKLEIK
notes: source: purified
